Test results published in patent US20240270821A1, “GIP/GLP1/GCG TRI-RECEPTOR AGONISTS AND USES THEREOF” (priority 2023, published 2024).
Starred links: 1 amine or outer side, 2 acyl side, 3 side chain; linkers in the order of their positions; H or OH if unused. Non-standard residues stand in square brackets, D forms with d. Groups on a side chain read outwards from the residue. No end group written: not given here. *: point of attachment. C18 diacid = O=C(O)CCCCCCCCCCCCCCCCC(=O)*; γGlu = O=C(O)[C@H](CCC(=O)[*:2])N[*:1]; αMeL = CC(C)C[C@](C)(N)C(=O)O; Dab = NCC[C@H](N)C(=O)O; AEEA = NCCOCCOCC(=O)O; Aib = CC(C)(N)C(=O)O

What was measured:
Experiment in all cases: cell-based or functional assay
hGLP-1R = hGLP-1R (Homo sapiens, UniProt P43220)
[1] = target: T1, human GIP receptor (human) (UniProt P48546)
T1 sequence (looked up): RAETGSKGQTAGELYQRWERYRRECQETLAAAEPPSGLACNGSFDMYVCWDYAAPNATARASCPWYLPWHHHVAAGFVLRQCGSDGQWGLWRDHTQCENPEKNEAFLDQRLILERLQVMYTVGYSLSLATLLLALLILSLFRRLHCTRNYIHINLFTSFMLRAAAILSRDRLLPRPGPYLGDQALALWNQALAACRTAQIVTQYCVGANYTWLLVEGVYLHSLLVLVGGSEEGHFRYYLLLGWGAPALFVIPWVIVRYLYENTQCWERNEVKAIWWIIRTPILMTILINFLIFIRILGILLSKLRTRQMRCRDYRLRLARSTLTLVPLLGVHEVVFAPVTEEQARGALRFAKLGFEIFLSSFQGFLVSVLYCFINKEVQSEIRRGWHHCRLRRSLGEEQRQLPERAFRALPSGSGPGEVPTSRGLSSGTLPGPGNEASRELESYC

[2] = target: human GLP1-R (SNAP-GLP-1R expressed in HEK293 cells) (human) (UniProt P43220)
[3] = target: human glucagon receptor (human) (UniProt P47871)
human glucagon receptor (human), sequence (P47871 26-477): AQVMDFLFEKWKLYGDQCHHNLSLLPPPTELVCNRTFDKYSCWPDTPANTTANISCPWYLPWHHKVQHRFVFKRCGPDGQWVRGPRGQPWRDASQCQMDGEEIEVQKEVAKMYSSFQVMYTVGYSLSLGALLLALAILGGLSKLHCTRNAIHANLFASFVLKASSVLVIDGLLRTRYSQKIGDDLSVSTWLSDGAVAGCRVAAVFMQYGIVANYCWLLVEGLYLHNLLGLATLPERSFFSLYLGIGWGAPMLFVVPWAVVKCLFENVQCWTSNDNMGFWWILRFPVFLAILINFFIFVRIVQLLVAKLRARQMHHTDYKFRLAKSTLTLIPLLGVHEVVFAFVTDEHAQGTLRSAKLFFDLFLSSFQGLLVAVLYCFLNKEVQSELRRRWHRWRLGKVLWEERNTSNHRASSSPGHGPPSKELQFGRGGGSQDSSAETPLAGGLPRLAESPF

hGLP-1R, sequence (P43220 24-463): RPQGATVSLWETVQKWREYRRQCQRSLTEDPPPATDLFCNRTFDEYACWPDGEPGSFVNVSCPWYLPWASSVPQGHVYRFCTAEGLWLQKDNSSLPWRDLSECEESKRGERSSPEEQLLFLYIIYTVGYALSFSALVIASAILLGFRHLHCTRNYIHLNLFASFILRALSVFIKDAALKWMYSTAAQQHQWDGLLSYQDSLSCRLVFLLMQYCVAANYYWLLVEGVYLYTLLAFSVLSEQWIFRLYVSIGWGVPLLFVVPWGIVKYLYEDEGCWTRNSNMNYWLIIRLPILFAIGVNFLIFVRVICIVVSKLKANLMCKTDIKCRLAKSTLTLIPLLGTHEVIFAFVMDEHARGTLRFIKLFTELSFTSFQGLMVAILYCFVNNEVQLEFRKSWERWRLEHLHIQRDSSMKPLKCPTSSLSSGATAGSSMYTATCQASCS
human GLP1-R (SNAP-GLP-1R expressed in HEK293 cells) (human), sequence (P43220 24-463): as above

Binder | Relative cAMP EC50 (hGLP-1R) | cAMP Rel EC50, nM (in the presence of 1% HSA) (hGLP-1R) | Relative cAMP EC50 [1] | cAMP Rel EC50, nM (in the presence of 1% HSA) [1] | GLP1R Internalization EC50 [2] | Internalization % TOP [2] | Relative cAMP EC50 [3] | cAMP Rel EC50, nM (in the presence of 1% HSA) [3] | cAMP Rel EC50 (in the presence of 1% HSA) (hGLP-1R) | cAMP Rel EC50 (in the presence of 1% HSA) [1] | cAMP Rel EC50 (in the presence of 1% HSA) [3]
Y[Aib]QGTFTSDFS[Dab][αMeL]LDKK([AEEA-γGlu-C18 diacid])AQ[Aib]AFIEYLLEGGPSSGAPPPGGS-NH2 [Example 67] | 4.07 nM | 683 nM | 0.34 nM | 73.3 nM | 50.9 nM | 31.1% | 3.7 nM | 781 nM |  |  | 
YXQGTFTSDFSKXLDKKAQXAFIEYLLEXGPSSGAPPPSGS (synthetic construct; SITE 2: note = 2-Aminoisobutyric Acid; SITE 13: note = alpha-methyl-leucine; SITE 17: note = Lysine is chemically modified through conjugation of the epsilon-amino group of the Lysine side chain with (2-[2-(2-Amino-ethoxy)-ethoxy]-acetyl)-(gamma-Glu)-CO-(CH2) 18-CO2H; SITE 20: n) [Example 45] | 1.52 nM |  | 0.112 nM |  | 52.6 nM | 62.1% | 2.08 nM |  | 493 nM | 33.4 nM | 879 nM
YXQGTFTSDFSXXLDKKAQXAFIEYLLEXGPSSGAPPPGEG (synthetic construct; SITE 2: note = 2-Aminoisobutyric Acid; SITE 12: note = L-ornithine; SITE 13: note = alpha-methyl-leucine; SITE 17: note = Lysine is chemically modified through conjugation of the epsilon-amino group of the Lysine side chain with (2-[2-(2-Amino-ethoxy)-ethoxy]-acetyl)2-(gamma-Glu)) [Example 70] | 2.71 nM | 620 nM | 0.102 nM | 27.4 nM | 60 nM | 61.3% | 6.04 nM | 717 nM |  |  | 
YXQGTFTSDFSRXLDKKAQXAFIEYLLEXGPSSGAPPPSGS (synthetic construct; SITE 2: note = 2-Aminoisobutyric Acid; SITE 13: note = alpha-methyl-leucine; SITE 17: note = Lysine is chemically modified through conjugation of the epsilon-amino group of the Lysine side chain with (2-[2-(2-Amino-ethoxy)-ethoxy]-acetyl)2-(gamma-Glu)-CO-(CH2 )16-CO2H; SITE 20:) [Example 80] | 2.55 nM | 627 nM | 0.0593 nM | 10.1 nM | 35.8 nM | 48.2% | 7.44 nM | 1190 nM |  |  | 
YXQGTFTSDFSXXLDKKAQXAFIEYLLEGGPSSGAPPPSEG (synthetic construct; SITE 2: note = 2-Aminoisobutyric Acid; SITE 12: note = L-ornithine; SITE 13: note = alpha-methyl-leucine; SITE 17: note = Lysine is chemically modified through conjugation of the epsilon-amino group of the Lysine side chain with (2-[2-(2-Amino-ethoxy)-ethoxy]-acetyl)-(gamma-Glu)) [Example 50] | 4.65 nM | 1110 nM | 0.29 nM | 69.6 nM | 30.1 nM | 31.1% | 4.25 nM | 1040 nM |  |  | 
YXQGTFTSDFSKXLDKKAQXAFIEYLIEGGPSSGAPPPSEG (not fully specified; synthetic construct; SITE 2: note = 2-Aminoisobutyric Acid; SITE 13: note = alpha-methyl-leucine; SITE 17: note = Lysine is chemically modified through conjugation of the epsilon-amino group of the Lysine side chain with (2-[2-(2-Amino-ethoxy)-ethoxy]-acetyl)-(gamma-Glu)-CO-gamma -gamma-(CH2)16-CO2H) [Example 49] | 0.706 nM | 151 nM | 0.324 nM | 44.9 nM | 37.2 nM | 53.2% | 5.54 nM | 1310 nM |  |  | 
YXQGTFTSDFSRXLDKKAQXAFIEYLLEXGPSSGAPPPSGS (synthetic construct; SITE 2: note = 2-Aminoisobutyric Acid; SITE 13: note = alpha-methyl-leucine; SITE 17: note = Lysine is chemically modified through conjugation of the epsilon-amino group of the Lysine side chain with (2-[2-(2-Amino-ethoxy)-ethoxy]-acetyl)-(gamma-Glu)-CO-(CH2) 16-CO2H; SITE 20: n) [Example 79] | 1.8 nM | 437 nM | 0.0773 nM | 14.3 nM | 56.6 nM | 45.3% | 3.08 nM | 903 nM |  |  | 
YXQGTFTSDFSXXLDKKAQXAFIEWLLEGGPSSGAPPPSGS (synthetic construct; SITE 2: note = 2-Aminoisobutyric Acid; SITE 12: note = L-ornithine; SITE 13: note = alpha-methyl-leucine; SITE 17: note = Lysine is chemically modified through conjugation of the epsilon-amino group of the Lysine side chain with (2-[2-(2-Amino-ethoxy)-ethoxy]-acetyl)-(gamma-Glu)) [Example 78] | 1.93 nM | 560 nM | 0.228 nM | 78.4 nM | 78.2 nM | 55% | 7.06 nM | 2640 nM |  |  | 
YXQGTFTSDFSKXLDKKAQXAFIEYLLEGGPSSGAPPPSEG (synthetic construct; SITE 2: note = 2-Aminoisobutyric Acid; SITE 13: note = alpha-methyl-leucine; SITE 17: note = Lysine is chemically modified through conjugation of the epsilon-amino group of the Lysine side chain with (gamma-Glu)2-CO-(CH2)16-CO2H; SITE 20: note = 2-Aminoisobutyric Acid; SITE 41:) [Example 58] | 2.93 nM | 20.7 nM | 0.175 nM | 3.75 nM | 56.2 nM | 78.1% | 4.86 nM | 115 nM |  |  | 
YXQGTFTSDFSKXLDKKAQXAFIEYLLEXGPSSGAPPPSEG (synthetic construct; SITE 2: note = 2-Aminoisobutyric Acid; SITE 13: note = alpha-methyl-leucine; SITE 17: note = Lysine is chemically modified through conjugation of the epsilon-amino group of the Lysine side chain with (2-[2-(2-Amino-ethoxy)-ethoxy]-acetyl)-(gamma-Glu)-CO-(CH2) 16-CO2H; SITE 20: n) [Example 57] | 3.06 nM | 42.7 nM | 0.098 nM | 3.78 nM | 76.6 nM | 73.1% | 4.37 nM | 113 nM |  |  | 
